± gives the standard deviation of the averaged measurements.

For 116 sequences, protein stability index results are on record in the supplement of paper PMC10724198.
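Further: PSI is a weighted mean of sequencing reads over stability bins, variants kept only with over 10 reads, mCherry proximal and sfGFP distal, peptide attached via GGGS linker.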

This series deals with Saccharomyces cerevisiae. As to the kind of experiment: protein stability index of tFT-peptide fusion (C-terminal peptide) (PSI (0-1 scale)); higher = more stable (slower turnover). The following applies: genetic background: wild type; temperature: 30 C.
As for TSRCQIGIALGG, the protein stability index was determined as 0.695 ± 0.12.

Sequence TSRGGFCLGGVF registered a protein stability index of 0.729 ± 0.018.

The sequence TSRLPPSPPPPP yielded a protein stability index of 0.696 ± 0.14.

TSRSPLCTETIP: the protein stability index turned out to be 0.736 ± 0.0074.

TSTGARTMFNPV came in with a protein stability index of 0.646 ± 0.061.

As for TSVVLPGPAVSR, the protein stability index is 0.732 ± 0.049.

The sequence TSWTTVYSSLLT returned a protein stability index of 0.672 ± 0.088.

With TTACLLERFTRV, the protein stability index is 0.664 ± 0.028.

In turn, TTDKNEAHVYSR showed a protein stability index of 0.6931 ± 0.00098.

TTGGRGARVGGR returned a protein stability index of 0.755 ± 0.08.

Consider TTILCVARHIPH, for which the protein stability index is 0.759 ± 0.089.

Sequence TTLFLPAGYACR gave a protein stability index of 0.707 ± 0.037.

TTPKLQPAPAVP gave a protein stability index of 0.691 ± 0.059.

TTRKMGTRAPSL yielded a protein stability index of 0.647 ± 0.095.

Sequence TTRPTRGRPSSG yielded a protein stability index of 0.682 ± 0.058.

In the case of TTSDSVVFWTLH, the protein stability index amounted to 0.719 ± 0.0074.

In turn, TTSGCARLSHMV gave a protein stability index of 0.709 ± 0.086.

TTSPRNMIIYYR: the protein stability index was determined as 0.627 ± 0.037.

TTYFLASSEWAG yielded a protein stability index of 0.7739 ± 0.003.

For the sequence TVGSPTPRSSAP, the protein stability index was 0.707 ± 0.0098.

With TVLRPVLCCFFV, the protein stability index is 0.698 ± 0.015.

Sequence TVLSSQKPNNDR showed a protein stability index of 0.652 ± 0.023.

Sequence TVPESGSIGERK showed a protein stability index of 0.672 ± 0.03.

As to TVPGTARGQRPP, the protein stability index came to 0.629 ± 0.03.

Consider TVRFTHQRNTVK, for which the protein stability index was 0.689 ± 0.037.

For the sequence TVRIGKYTGNGV, the protein stability index is 0.738 ± 0.017.

The sequence TVSAPLFFPLNW registered a protein stability index of 0.663 ± 0.034.

As for TVTSTLKKHKRG, the protein stability index was 0.669 ± 0.034.

As for TVYTPGVFVKTV, the protein stability index stood at 0.562 ± 0.044.

Consider TWIGRLGAGLPF, for which the protein stability index was found to be 0.779 ± 0.074.

The sequence TWSLYFSCRLFW yielded a protein stability index of 0.54 ± 0.055.

TWVVPSASWLVF showed a protein stability index of 0.598 ± 0.009.

Regarding TYGPSLPVHAVT, the protein stability index amounted to 0.686 ± 0.012.

Consider TYPMGVVLVESG, for which the protein stability index was found to be 0.498 ± 0.011.

Consider TYQRTHKTATQF, for which the protein stability index is 0.681 ± 0.073.

Turning to TYRLPLLAPAPR, the protein stability index came out at 0.688 ± 0.0097.

As to TYSCLKIVIPRT, the protein stability index stood at 0.664 ± 0.018.

In turn, VAAASPLFSRID displayed a protein stability index of 0.712 ± 0.014.

VADTLVCRGPMA: the protein stability index was found to be 0.718 ± 0.023.

The sequence VALEWGAVRVEG came in with a protein stability index of 0.569 ± 0.088.

The sequence VALPVGQKLRTR displayed a protein stability index of 0.633 ± 0.029.

With VAPLTPPPSLPF, the protein stability index was determined as 0.671 ± 0.014.

For VAQKARSVRFSI, the protein stability index is 0.722 ± 0.1.

Regarding VARPSGQRVRHA, the protein stability index is 0.656 ± 0.085.

For the sequence VARVVGGVGGGW, the protein stability index was determined as 0.6553 ± 0.006.

As for VASGLVLFSGGV, the protein stability index worked out at 0.655 ± 0.0076.

On to VASGTLGWWVSA, for which the protein stability index turned out to be 0.712 ± 0.018.

In the case of VAVGAGAGAMGL, the protein stability index came out at 0.656 ± 0.0094.

VAYAGIRHDIPQ: the protein stability index came to 0.68 ± 0.081.

VCCMFTAFGVCG had a protein stability index of 0.604 ± 0.022.

The sequence VCGGRQVGWGGW gave a protein stability index of 0.684 ± 0.045.

VCGLTLSVCTFG yielded a protein stability index of 0.567 ± 0.0068.

For VCKGGRIEYGLQ, the protein stability index was 0.666 ± 0.037.

As for VCLCFWSVGSWG, the protein stability index was found to be 0.543 ± 0.011.

VCLCGGLGWVLF returned a protein stability index of 0.634 ± 0.029.

VCVACLRYPTFS returned a protein stability index of 0.6767 ± 0.0031.

For the sequence VCWFMWSSVYGE, the protein stability index was 0.527 ± 0.051.

In turn, VDCEECSFQFQM returned a protein stability index of 0.586 ± 0.15.

Turning to VDCGPLSIEGGR, the protein stability index was determined as 0.649 ± 0.018.

Sequence VDLLGWVSESRC had a protein stability index of 0.743 ± 0.089.

VDREGFTVLGRV: the protein stability index came to 0.657 ± 0.021.

Regarding VDSLETDVLKYL, the protein stability index is 0.665 ± 0.011.

VDSLFGSRVLRL: the protein stability index amounted to 0.727 ± 0.097.

For VEDGQGEYRRWV, the protein stability index came to 0.606 ± 0.049.

The sequence VEGINSQERLGV returned a protein stability index of 0.724 ± 0.07.

Take VEHHSKQIEKGR: the protein stability index turned out to be 0.681 ± 0.053.

As to VELCLREKQIQL, the protein stability index was determined as 0.6749 ± 0.0039.

In turn, VELFSYGHHCRV registered a protein stability index of 0.658 ± 0.011.

For VELSVVHMGHTA, the protein stability index is 0.722 ± 0.0073.

In turn, VESRVVGGCGDW yielded a protein stability index of 0.625 ± 0.03.

Regarding VEVGAWMVGCSE, the protein stability index turned out to be 0.6113 ± 0.0012.

Turning to VEWCARGRVRRA, the protein stability index was found to be 0.757 ± 0.045.

In the case of VEWLQLERDPLV, the protein stability index was 0.741 ± 0.033.

Take VEYGRLPRGEEG: the protein stability index was found to be 0.645 ± 0.13.

The sequence VFADHPSMHILS returned a protein stability index of 0.72 ± 0.021.

Regarding VFAGGCRLYCFR, the protein stability index was 0.624 ± 0.063.

With VFALSSVAIRRS, the protein stability index amounted to 0.64 ± 0.032.

Sequence VFAWFSGGARLT registered a protein stability index of 0.717 ± 0.0076.

The sequence VFCFGVRSVFLR displayed a protein stability index of 0.54 ± 0.053.

As for VFCLGTRSWGLF, the protein stability index turned out to be 0.6997 ± 0.0042.

In turn, VFFCALCRLWLG gave a protein stability index of 0.5 ± 0.029.

In turn, VFGGSLICVFRV returned a protein stability index of 0.567 ± 0.025.

Turning to VFLASFLVCPIS, the protein stability index came out at 0.662 ± 0.057.

With VFLSLLYWSPIG, the protein stability index came out at 0.643 ± 0.038.

Consider VFLTLDVFPSSP, for which the protein stability index was determined as 0.647 ± 0.17.

The sequence VFPPPLPVRRCP displayed a protein stability index of 0.6551 ± 0.0031.

Regarding VFPRVFGFGVCI, the protein stability index is 0.716 ± 0.054.

Consider VFQRFLLFTISP, for which the protein stability index was determined as 0.61 ± 0.014.

VFRSGGNQDIKV returned a protein stability index of 0.648 ± 0.015.

Sequence VFSAVIFFDCVQ gave a protein stability index of 0.629 ± 0.014.

In the case of VFSGGTVRWVGG, the protein stability index came out at 0.702 ± 0.023.

As for VFWVFDGFEGFI, the protein stability index was determined as 0.825 ± 0.022.

The sequence VGAGGAWSGCGP gave a protein stability index of 0.675 ± 0.046.

Turning to VGAVRVAVGVGG, the protein stability index was 0.566 ± 0.0096.

In turn, VGAWGCGMWVVG gave a protein stability index of 0.645 ± 0.024.

VGCWATGVGGPS gave a protein stability index of 0.706 ± 0.038.

In turn, VGDGLGGGGQGG came in with a protein stability index of 0.664 ± 0.056.

The sequence VGDGQVWGGQGG registered a protein stability index of 0.669 ± 0.063.

On to VGEGLGWGGQGG, for which the protein stability index worked out at 0.712 ± 0.062.

In the case of VGERVSRRIQTR, the protein stability index was 0.699 ± 0.052.

For the sequence VGESGEGVVMGE, the protein stability index is 0.677 ± 0.08.

VGFVYLTSAQVW displayed a protein stability index of 0.527 ± 0.012.

The sequence VGGAAVVAGGGV had a protein stability index of 0.695 ± 0.031.

On to VGGACGLSGGLV, for which the protein stability index is 0.652 ± 0.062.

VGGAVGAGGGGG returned a protein stability index of 0.649 ± 0.032.

In the case of VGGAVVWVGLVR, the protein stability index worked out at 0.55 ± 0.031.

VGGEGGLGVRPR returned a protein stability index of 0.662 ± 0.033.

In turn, VGGEGVGVGGEV yielded a protein stability index of 0.616 ± 0.018.

Sequence VGGFVRGRVWCS had a protein stability index of 0.696 ± 0.012.

In the case of VGGGFSSVVWLW, the protein stability index was 0.658 ± 0.043.

As for VGGGGGVSLGGR, the protein stability index worked out at 0.655 ± 0.087.

For the sequence VGGLAFSTSSIW, the protein stability index was 0.809 ± 0.11.

As to VGGMGAEGRGGK, the protein stability index stood at 0.721 ± 0.009.

The sequence VGGRGLVWVWGG yielded a protein stability index of 0.631 ± 0.059.

For the sequence VGGSERVWVKSL, the protein stability index was 0.537 ± 0.043.

In the case of VGGVWVDVMGFC, the protein stability index turned out to be 0.793 ± 0.16.
